This note sets out measurements from article PMC3446985.

In this assay the target is human GRP78 (human) (UniProt P11021). Description: AUC; sedimentation velocity, GRP78 alone at 0.4, 0.6 and 1.2 mg/mL, 28,000 rpm, 20°C, 20 mM sodium phosphate pH 7.0, 100 mM NaCl, 55 mM arginine, c(S) analysis; monomer to dimer.

Sequence of human GRP78, P11021 19-654 (natural protein; other documents disagree on this pair) (P11021 19-654): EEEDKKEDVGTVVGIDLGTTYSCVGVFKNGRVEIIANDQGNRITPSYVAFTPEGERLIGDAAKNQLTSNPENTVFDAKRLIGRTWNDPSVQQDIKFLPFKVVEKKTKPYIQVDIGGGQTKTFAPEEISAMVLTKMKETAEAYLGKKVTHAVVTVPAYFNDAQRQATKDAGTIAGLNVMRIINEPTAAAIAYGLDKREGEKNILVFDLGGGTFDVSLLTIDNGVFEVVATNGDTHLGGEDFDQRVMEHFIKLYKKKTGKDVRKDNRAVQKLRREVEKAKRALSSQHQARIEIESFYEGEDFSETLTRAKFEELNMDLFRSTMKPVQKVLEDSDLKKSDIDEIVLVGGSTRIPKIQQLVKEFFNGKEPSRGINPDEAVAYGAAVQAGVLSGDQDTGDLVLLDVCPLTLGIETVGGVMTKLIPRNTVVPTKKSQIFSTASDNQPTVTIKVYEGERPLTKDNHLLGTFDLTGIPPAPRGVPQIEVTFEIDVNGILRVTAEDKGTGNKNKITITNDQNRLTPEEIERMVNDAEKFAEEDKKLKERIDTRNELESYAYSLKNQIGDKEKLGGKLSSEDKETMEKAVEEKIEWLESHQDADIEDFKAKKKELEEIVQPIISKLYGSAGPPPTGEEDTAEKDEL

“human GRP78, P11021 19-654 (natural protein; other documents disagree on this pair)” registered a stoichiometry N of 2.

As usually defined, the stoichiometry N is a count of units in the complex or per binding partner.
